Data: US20240010754A1 (JIANGSU HENGRUI MEDICINE, published 2024)

T1: human FAP (human, UniProt Q12884 1-760)
T1 construct: whole, on cells; also called CHO/FAP; Flp-In CHO/FAP
T1 sequence (looked up): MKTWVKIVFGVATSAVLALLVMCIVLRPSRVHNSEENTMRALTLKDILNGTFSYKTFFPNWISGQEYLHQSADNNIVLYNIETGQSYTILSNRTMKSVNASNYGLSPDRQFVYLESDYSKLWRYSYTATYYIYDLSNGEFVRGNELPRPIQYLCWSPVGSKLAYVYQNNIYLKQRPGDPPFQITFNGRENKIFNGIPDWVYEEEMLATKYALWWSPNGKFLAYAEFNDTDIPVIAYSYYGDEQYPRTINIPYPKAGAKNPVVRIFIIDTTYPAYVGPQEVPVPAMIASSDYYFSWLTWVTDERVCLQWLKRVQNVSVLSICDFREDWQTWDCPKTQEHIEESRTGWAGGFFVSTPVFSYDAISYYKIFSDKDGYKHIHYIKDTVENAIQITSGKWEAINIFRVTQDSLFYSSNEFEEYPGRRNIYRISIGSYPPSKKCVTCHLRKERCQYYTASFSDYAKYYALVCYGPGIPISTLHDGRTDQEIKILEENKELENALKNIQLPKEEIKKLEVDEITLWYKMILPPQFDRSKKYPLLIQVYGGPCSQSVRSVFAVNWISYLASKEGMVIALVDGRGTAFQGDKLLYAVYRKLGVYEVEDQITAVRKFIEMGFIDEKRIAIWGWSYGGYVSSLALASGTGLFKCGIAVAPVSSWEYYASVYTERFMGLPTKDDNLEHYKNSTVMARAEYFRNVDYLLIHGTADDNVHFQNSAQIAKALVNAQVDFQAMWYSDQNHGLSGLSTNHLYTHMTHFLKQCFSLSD


What was measured:
human PD-1 [1] = target: T2, human PD-1 (human, UniProt Q15116 25-288); experiment: flow cytometry cell cross-linking (CHO-K1/PD-1 + HEK293/CTLA-4 cells), antibody at 1 nM
T2 construct: whole, on cells; also called CHO-K1/PD-1
Procedure: (§1) The ability of PD-1×CTLA-4 bispecific antibodies to co-bind to cells highly expressing human PD-1 and human CTLA-4 after polishing purification was determined by flow cytometry. First, HEK293 cells were transiently transfected with human CTLA-4 plasmids, and 24 h after the transfection, the HEK293 cells highly expressing CTLA-4 were labeled with Cell Trace Far red (Invitrogen, C34564), and the CHO-K1/PD-1 stably transfected strain was labeled with Cell Trace Violet (Invitrogen, C34557). The cells were added to a 96-well U-bottom plate (Costar, 3599) at 2E5 cells/well, and the test antibody was diluted to 100 nM, 10 nM, 1 nM, 0.1 nM and 0.01 nM and added to the 96-well U-bottom plate at 50 μL/well, making a total volume of 150 μL/well. The plate was incubated at 4° C. in a dark place for 1 h. The double-positive cell percentage of HEK293/CTLA-4 of CTLA-4 and CHO-K1/PD-1 was determined by flow cytometry.
(§2) According to Example 1.4, the ability of each of the PD-1×CTLA-4 bispecific antibodies TJ030-PR1102 (F126C-S121C was placed into the CTLA-4 arm), TJ030-PR1104 (F170C-T164C was placed into the CTLA-4 arm), TJ030-PR1106 (F126C-S121C was placed into the PD-1 arm) and TJ030-PR1108 (F170C-T164C was placed into the PD-1 arm) to co-bind to cells highly expressing human PD-1 and human CTLA-4 after polishing purification was determined by flow cytometry, with CTLA-4 monoclonal antibody and IgG as negative controls. […] Such cross-linking of cells occurred in bispecific antibody molecule incubation only rather than monoclonal antibody or IgG1 incubation.

human PD-1 [2] = target: T2, human PD-1; experiment: flow cytometry cell cross-linking (CHO-K1/PD-1 + HEK293/CTLA-4 cells), antibody at 3 nM
Procedure: as §1, §2

human PD-1 [3] = target: T2, human PD-1; experiment: flow cytometry cell cross-linking (CHO-K1/PD-1 + HEK293/CTLA-4 cells), antibody at 10 nM
Procedure: as §1, §2

human PD-1 [4] = target: T2, human PD-1; experiment: flow cytometry cell cross-linking (CHO-K1/PD-1 + HEK293/CTLA-4 cells), antibody at 30 nM
Procedure: as §1, §2

human PD-1 [5] = target: T2, human PD-1; experiment: flow cytometry cell cross-linking (CHO-K1/PD-1 + HEK293/CTLA-4 cells), antibody at 0.1 nM
Procedure: as §1, §2

human PD-1 [6] = target: T2, human PD-1; experiment: flow cytometry cell cross-linking (CHO-K1/PD-1 + HEK293/CTLA-4 cells), antibody at 0.3 nM
Procedure: as §1, with “The cells were added to a 96-well U-bottom plate (Costar, 3599) at 2E5 cells/well, and the test antibody was diluted to 100 nM, 10 nM, 1 nM, 0.1 nM and 0.01 nM and added to the 96-well U-bottom plate at 50 μL/well, making a total volume of 150 μL/well.” left out
as §2

human PD-1 [7] = target: T2, human PD-1; experiment: flow cytometry cell cross-linking (CHO-K1/PD-1 + HEK293/CTLA-4 cells), antibody at 100 nM
Procedure: as §1, §2

human PD-1 [8] = target: T2, human PD-1; experiment: flow cytometry cell cross-linking (CHO-K1/PD-1 + HEK293/CTLA-4 cells), antibody at 0.03 nM
Procedure: as §1, with “The cells were added to a 96-well U-bottom plate (Costar, 3599) at 2E5 cells/well, and the test antibody was diluted to 100 nM, 10 nM, 1 nM, 0.1 nM and 0.01 nM and added to the 96-well U-bottom plate at 50 μL/well, making a total volume of 150 μL/well.” left out
as §2

human FAP = target: T1, human FAP; experiment: FACS binding to CHO/FAP cells
Procedure: (§3) CHO cells stably expressing human FAP (i.e., CHO/FAP cells) and HEK293 cells 48 hours after transient transfection (i.e., HEK293/CD40 cells) in the logarithmic growth phase were collected by centrifugation, washed with PBS and then centrifuged. The cells were plated at 2E5 cells/100 μL/well and centrifuged at 400 g for 5 min Different concentrations of test antibody were added. The cells were incubated on ice for 1 h, washed with PBS and centrifuged at 400 g for 5 min The goat anti-human secondary antibody Alexa Fluor 488 with a fluorophore was added, and the cells were stained in an ice bath for 1 h, washed twice with PBS and then assayed on a flow cytometer.
(§4) The bispecific antibodies ERP2006-BS0012 and ERP2006-BS0015 have similar affinity for FAP to the parent FAP monoclonal antibody AblO and similar affinity for CD40 to the parent CD40 monoclonal antibody 9E5-25.

human CD40 = target: T3, human CD40 (human, UniProt P25942 21-277); experiment: FACS binding to HEK293/CD40 cells
T3 construct: whole, on cells; also called HEK293/CD40; HEK-Blue CD40L cell
Procedure: as §3, §4

T2 sequence (Q15116 25-288): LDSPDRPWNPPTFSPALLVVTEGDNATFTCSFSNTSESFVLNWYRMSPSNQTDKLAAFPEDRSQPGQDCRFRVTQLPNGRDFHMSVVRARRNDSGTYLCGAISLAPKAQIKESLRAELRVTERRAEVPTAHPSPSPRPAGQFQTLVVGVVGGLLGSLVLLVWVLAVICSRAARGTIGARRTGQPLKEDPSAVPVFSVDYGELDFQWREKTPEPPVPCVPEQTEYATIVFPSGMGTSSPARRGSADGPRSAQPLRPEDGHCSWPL
T3 sequence (P25942 21-277): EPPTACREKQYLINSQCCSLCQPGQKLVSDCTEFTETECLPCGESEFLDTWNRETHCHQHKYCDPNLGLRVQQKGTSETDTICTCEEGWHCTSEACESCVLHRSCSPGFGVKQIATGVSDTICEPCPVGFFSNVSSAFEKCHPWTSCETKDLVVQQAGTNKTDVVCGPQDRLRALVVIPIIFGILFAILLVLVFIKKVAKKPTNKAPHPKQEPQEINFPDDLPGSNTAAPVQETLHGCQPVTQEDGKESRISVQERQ

proportion of double-positive cells (human PD-1 [1]) [%] | proportion of double-positive cells (human PD-1 [2]) [%] | proportion of double-positive cells (human PD-1 [3]) [%] | proportion of double-positive cells (human PD-1 [4]) [%] | proportion of double-positive cells (human PD-1 [5]) [%] | proportion of double-positive cells (human PD-1 [6]) [%] | proportion of double-positive cells (human PD-1 [7]) [%] | proportion of double-positive cells (human PD-1 [8]) [%] | EC50 (human FAP) [pM] | EC50 (human CD40) [pM] | binding result (human FAP) | Binder
– | – | – | – | – | – | – | – | 349 | 471 | – | ERP2006-BS0012 (bispecific antibody, human IgG1, kappa, lambda, 2+2 symmetric bispecific: [CD40 VH-CH1]-Fc-linker-[FAP VH-CH1] heavy chain with two kinds of light chain; also called FAP×CD40 bispecific antibody) heavy: not shown light 1: DIVMTQSPLSLPVTPGEPASISCRSSQNIVNSQGNTYLEWYLQKPGQSPQLLIYKVTNRFSGVPDRFSGSGSGTDFTLKISRVEAEDVGVYYCFQASLVPWTFGGGTKVEIKRTVAAPSVFIFPPSDEQLKSGTASVVCLLNNFYPREAKVQWKVDNALQSGNSQESVTEQDSKDSTYSLSSTLTLSKADYEKHKVYACEVTHQGLSSPVTKSFNRGEC light 2: DIQMTQSPSSVSASVGDRVTITCRASQGISSWLAWYQQKPGKAPKLLIYAASSLQSGVPSRFSGSGSGTDFTLTISSLQPEDFATYYCQQANSFPPAFGQGTKVEIKGQPKAAPSVTLFPPSSEELQANKATLVCLISDFYPGAVTVAWKADSSPVKAGVETTTPCKQSNNKYAASSYLSLTPEQWKSHRSYSCQVTHEGSTVEKTVAPTESS
33.2 | 35.3 | 37.7 | 31.4 | 17 | 24.2 | 27.2 | 11.8 | – | – | – | TJ030-PR1108 (bispecific antibody, human IgG1, kappa, L234A L235A, 1+1 asymmetric knob-into-hole bispecific IgG1; knob on the PD-1 arm, hole on the CTLA-4 arm; tested after polishing purification; also called PD-1×CTLA-4 bispecific antibody (F170C-T164C placed into the PD-1 arm)) heavy 1: not shown light 1: DIVMTQTPLSLPVTPGEPASISCRSSQSLVHSTGNTYLEWYLQKPGQSPQLLIYKVSNRFSGVPDRFSGSGSGTDFTLKISRVEAEDVGVYYCFQGSHVPYTFGGGTKVEIKRTVAAPSVFIFPPSDEQLKSGTASVVCLLNNFYPREAKVQWKVDNALQSGNSQESVCEQDSKDSTYSLSSTLTLSKADYEKHKVYACEVTHQGLSSPVTKSFNRGEA heavy 2: not shown light 2: not shown
30.5 | 35.8 | 34.8 | 32.1 | 18.2 | 25.3 | 25.4 | 10.4 | – | – | – | TJ030-PR1104 (bispecific antibody, human IgG1, kappa, L234A L235A, 1+1 asymmetric knob-into-hole bispecific IgG1; knob on the PD-1 arm, hole on the CTLA-4 arm; tested after polishing purification; also called PD-1×CTLA-4 bispecific antibody (F170C-T164C placed into the CTLA-4 arm)) heavy 1: not shown light 1: DIVMTQTPLSLPVTPGEPASISCRSSQSLVHSTGNTYLEWYLQKPGQSPQLLIYKVSNRFSGVPDRFSGSGSGTDFTLKISRVEAEDVGVYYCFQGSHVPYTFGGGTKVEIKRTVAAPSVFIFPPSDEQLKSGTASVVCLLNNFYPREAKVQWKVDNALQSGNSQESVTEQDSKDSTYSLSSTLTLSKADYEKHKVYACEVTHQGLSSPVTKSFNRGEC heavy 2: not shown light 2: not shown
– | – | – | – | – | – | – | – | – | – | binds | parent FAP monoclonal antibody Ab10 (antibody, V domains shown, also called AblO) VH: QVQLQQSGVEVKKPGASVTVSCRASGYSFADHFIHWVRQAPGQGFQWMGWINPNRGVTHHAQDFQGRVAMTRDMSTDTVYMELTSLRSDDTAVYYCARDASLTARPYYFYGFDVWGQGTLVTVSS VL: DIQMTQSPSSVSASVGDRVTITCRASQGISSWLAWYQQKPGKAPKLLIYAASSLQSGVPSRFSGSGSGTDFTLTISSLQPEDFATYYCQQANSFPPAFGQGTKVEIK

More lines, now with the values behind:

Binder | proportion of double-positive cells (human PD-1 [1]) [%] | proportion of double-positive cells (human PD-1 [2]) [%] | proportion of double-positive cells (human PD-1 [3]) [%] | proportion of double-positive cells (human PD-1 [4]) [%] | proportion of double-positive cells (human PD-1 [5]) [%] | proportion of double-positive cells (human PD-1 [6]) [%] | proportion of double-positive cells (human PD-1 [7]) [%] | proportion of double-positive cells (human PD-1 [8]) [%] | EC50 (human FAP) [pM] | EC50 (human CD40) [pM] | binding result (human FAP)
TJ030-PR1102 (bispecific antibody, human IgG1, kappa, L234A L235A, 1+1 asymmetric knob-into-hole bispecific IgG1; knob on the PD-1 arm, hole on the CTLA-4 arm; tested after polishing purification; also called PD-1×CTLA-4 bispecific antibody (F126C-S121C placed into the CTLA-4 arm)) heavy 1: not shown light 1: DIVMTQTPLSLPVTPGEPASISCRSSQSLVHSTGNTYLEWYLQKPGQSPQLLIYKVSNRFSGVPDRFSGSGSGTDFTLKISRVEAEDVGVYYCFQGSHVPYTFGGGTKVEIKRTVAAPSVFIFPPSDEQLKSGTASVVCLLNNFYPREAKVQWKVDNALQSGNSQESVTEQDSKDSTYSLSSTLTLSKADYEKHKVYACEVTHQGLSSPVTKSFNRGEC heavy 2: not shown light 2: not shown | 25.1 | 32.2 | 32.4 | 26.7 | 11.8 | 20.7 | 22.2 | 8.87 | – | – | –
TJ030-PR1106 (bispecific antibody, human IgG1, kappa, L234A L235A, 1+1 asymmetric knob-into-hole bispecific IgG1; knob on the PD-1 arm, hole on the CTLA-4 arm; tested after polishing purification; also called PD-1×CTLA-4 bispecific antibody (F126C-S121C placed into the PD-1 arm)) heavy 1: not shown light 1: DIVMTQTPLSLPVTPGEPASISCRSSQSLVHSTGNTYLEWYLQKPGQSPQLLIYKVSNRFSGVPDRFSGSGSGTDFTLKISRVEAEDVGVYYCFQGSHVPYTFGGGTKVEIKRTVAAPSVFIFPPCDEQLKSGTASVVCLLNNFYPREAKVQWKVDNALQSGNSQESVTEQDSKDSTYSLSSTLTLSKADYEKHKVYACEVTHQGLSSPVTKSFNRGEA heavy 2: not shown light 2: not shown | 34.7 | 37.4 | 38.1 | 33.1 | 19.1 | 26.3 | 23.9 | 10.9 | – | – | –
ERP2006-BS0015 (bispecific antibody, 2+2 symmetric bispecific: [CD40 VH-CH1]-Fc-linker-[FAP VH-CH1] heavy chain with two kinds of light chain; also called FAP×CD40 bispecific antibody) heavy: not shown light 1: DIVMTQSPLSLPVTPGEPASISCRSSQNIVNSQGNTYLEWYLQKPGQSPQLLIYKVTNRFSGVPDRFSGSGSGTDFTLKISRVEAEDVGVYYCFQASLVPWTFGGGTKVEIKGQPKAAPSVTLFPPSSEELQANKATLVCLISDFYPGAVTVAWKADSSPVKAGVETTTPCKQSNNKYAASSYLSLTPEQWKSHRSYSCQVTHEGSTVEKTVAPTESS light 2: DIQMTQSPSSVSASVGDRVTITCRASQGISSWLAWYQQKPGKAPKLLIYAASSLQSGVPSRFSGSGSGTDFTLTISSLQPEDFATYYCQQANSFPPAFGQGTKVEIKRTVAAPSVFIFPPSDEQLKSGTASVVCLLNNFYPREAKVQWKVDNALQSGNSQESVTEQDSKDSTYSLSSTLTLSKADYEKHKVYACEVTHQGLSSPVTKSFNRGEC | – | – | – | – | – | – | – | – | 336 | 456 | –
